Data on three substances can be found in article PMC2930068.

One assay concerns the target STAT1 (UniProt P42224). Briefly: sedimentation velocity analytical ultracentrifugation. Particulars: reference: uSTAT1; sites Y701.
Assay [1] concerns the target full-length importin-α5 with C-terminal Strep-tag (human) (UniProt P52294). As to the kind of experiment: SEC.
Assay [2] has as its target GST-importin α1/α5 (res. 1-446 of α1/449-538 of α5) (human) (UniProt P52292). As to the kind of experiment: SPR.
Assay [3] has as its target GST-importin α5 (res. 1-538) (human) (UniProt P52294). Briefly: SPR. A general note: Surface plasmon resonance follows binding to a sensor surface in real time, without labels.
For assay [4], the target named is GST-importin α5 (1-538) Tyr476Gly (human) (UniProt P52294). Briefly: SPR.
Chain of GST-importin α5 (1-538) Tyr476Gly (human) (P52294 whole entry Y476G): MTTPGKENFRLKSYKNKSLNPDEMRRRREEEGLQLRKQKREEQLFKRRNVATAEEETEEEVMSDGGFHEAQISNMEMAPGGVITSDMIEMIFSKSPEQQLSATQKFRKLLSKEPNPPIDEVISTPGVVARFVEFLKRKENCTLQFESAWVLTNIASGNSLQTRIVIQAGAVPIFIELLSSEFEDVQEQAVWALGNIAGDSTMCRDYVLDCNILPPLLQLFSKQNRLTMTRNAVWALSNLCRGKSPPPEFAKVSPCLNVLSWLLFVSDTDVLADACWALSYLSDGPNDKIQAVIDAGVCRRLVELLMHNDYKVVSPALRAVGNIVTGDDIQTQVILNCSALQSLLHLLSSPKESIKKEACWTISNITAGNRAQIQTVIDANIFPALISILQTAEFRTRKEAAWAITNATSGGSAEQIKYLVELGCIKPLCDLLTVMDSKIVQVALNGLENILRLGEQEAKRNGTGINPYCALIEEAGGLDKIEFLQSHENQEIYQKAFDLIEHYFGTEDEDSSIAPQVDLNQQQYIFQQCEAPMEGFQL
Assay [5] addresses importin α5, GST-tag removed (human) (UniProt P52294). As to the kind of experiment: AUC.
In assay [6] the target is GST-importin α5 (res. 1-538) (human) (UniProt P52294). As to the kind of experiment: SPR. The source holds these as a separate data set.
Chain of GST-importin α5 (res. 1-538) (human) (P52294 whole entry): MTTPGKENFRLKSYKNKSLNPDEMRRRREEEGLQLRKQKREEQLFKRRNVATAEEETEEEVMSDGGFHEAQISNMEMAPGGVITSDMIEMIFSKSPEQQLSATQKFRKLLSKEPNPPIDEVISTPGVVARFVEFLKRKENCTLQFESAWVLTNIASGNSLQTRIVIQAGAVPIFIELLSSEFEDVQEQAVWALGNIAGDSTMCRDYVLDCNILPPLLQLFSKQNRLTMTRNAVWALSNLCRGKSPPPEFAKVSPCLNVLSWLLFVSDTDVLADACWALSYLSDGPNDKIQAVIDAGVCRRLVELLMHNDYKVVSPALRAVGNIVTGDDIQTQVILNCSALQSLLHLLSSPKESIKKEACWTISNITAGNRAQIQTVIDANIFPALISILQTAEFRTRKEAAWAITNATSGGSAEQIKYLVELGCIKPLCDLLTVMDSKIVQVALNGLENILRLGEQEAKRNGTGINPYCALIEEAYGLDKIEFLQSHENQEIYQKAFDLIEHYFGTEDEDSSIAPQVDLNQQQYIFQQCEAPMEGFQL
For assay [7], the target named is GST-importin α5 (1-538) Tyr476Gly (human) (UniProt P52294). As to the kind of experiment: SPR. The source holds these as a separate data set.

Read-outs that look alike come from different tables or passages of the source.

The Kd is the free concentration of one partner at which half of the binding sites on the other are occupied at equilibrium, for simple one-to-one binding. Low values mean higher affinity, high ones lower affinity. By koff is commonly meant the rate constant with which the complex falls apart. A lower koff goes with slow dissociation. In general, kon refers to the second-order rate constant of association. Low readings indicate slower complex formation, high ones faster complex formation.

Chain of STAT1 (from UniProt P42224) pSTAT1 (P42224 whole entry, change not shown): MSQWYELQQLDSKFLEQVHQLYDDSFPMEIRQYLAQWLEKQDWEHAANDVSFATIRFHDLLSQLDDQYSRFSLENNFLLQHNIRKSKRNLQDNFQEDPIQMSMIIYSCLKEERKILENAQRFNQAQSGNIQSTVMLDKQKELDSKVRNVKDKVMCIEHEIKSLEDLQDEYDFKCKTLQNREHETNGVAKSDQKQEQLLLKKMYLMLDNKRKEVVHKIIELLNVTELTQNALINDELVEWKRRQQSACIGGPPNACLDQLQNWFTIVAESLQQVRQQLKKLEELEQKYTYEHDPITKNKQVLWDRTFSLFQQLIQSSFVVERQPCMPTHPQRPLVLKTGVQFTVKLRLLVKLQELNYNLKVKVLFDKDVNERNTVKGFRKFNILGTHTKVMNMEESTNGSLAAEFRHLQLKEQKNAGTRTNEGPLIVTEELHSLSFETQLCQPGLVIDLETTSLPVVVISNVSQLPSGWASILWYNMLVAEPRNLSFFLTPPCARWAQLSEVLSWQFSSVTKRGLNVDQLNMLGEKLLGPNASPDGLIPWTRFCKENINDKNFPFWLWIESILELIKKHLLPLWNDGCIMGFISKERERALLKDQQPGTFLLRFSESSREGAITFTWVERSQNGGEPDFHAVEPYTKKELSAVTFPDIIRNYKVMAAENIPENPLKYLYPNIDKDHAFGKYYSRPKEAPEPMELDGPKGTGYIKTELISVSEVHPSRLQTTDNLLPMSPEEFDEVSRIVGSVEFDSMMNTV
Chain of STAT1 (UniProt P42224) (P42224 whole entry): as the sequence (P42224 whole entry, change not shown) above
Chain of phosphorylated-Tyr701 STAT1 (1-712), N-terminal 6-histidine tag (P42224 1-712): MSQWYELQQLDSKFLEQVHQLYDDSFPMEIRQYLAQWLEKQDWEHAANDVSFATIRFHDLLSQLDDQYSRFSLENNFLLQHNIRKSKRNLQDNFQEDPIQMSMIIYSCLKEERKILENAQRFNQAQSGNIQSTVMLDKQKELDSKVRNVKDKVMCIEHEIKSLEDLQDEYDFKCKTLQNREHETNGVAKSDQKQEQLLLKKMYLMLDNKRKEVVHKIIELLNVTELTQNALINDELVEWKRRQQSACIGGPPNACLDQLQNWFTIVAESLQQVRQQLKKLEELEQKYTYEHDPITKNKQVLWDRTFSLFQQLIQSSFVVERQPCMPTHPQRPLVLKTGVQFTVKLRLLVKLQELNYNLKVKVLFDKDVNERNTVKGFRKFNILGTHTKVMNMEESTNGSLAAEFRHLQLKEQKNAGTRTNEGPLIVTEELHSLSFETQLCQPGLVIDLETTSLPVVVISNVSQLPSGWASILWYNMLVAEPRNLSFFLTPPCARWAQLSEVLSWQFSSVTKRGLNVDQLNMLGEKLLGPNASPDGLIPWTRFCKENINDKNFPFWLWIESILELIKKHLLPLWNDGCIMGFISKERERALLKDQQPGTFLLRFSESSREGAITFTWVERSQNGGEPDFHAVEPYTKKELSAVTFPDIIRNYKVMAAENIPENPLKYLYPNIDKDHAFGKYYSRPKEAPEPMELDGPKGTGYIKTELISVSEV
Chain of full-length importin-α5 with C-terminal Strep-tag (human) (P52294 whole entry): as the sequence (P52294 whole entry) above
Chain of importin α5, GST-tag removed (human) (P52294 whole entry): as above

For the substance STAT1 (from UniProt P42224) pSTAT1, the “other: molecular weight” value in the assay with STAT1 is reported as “same; reference ~180”.
Take “Strep-tagged phosphorylated-Tyr701 STAT1 (from UniProt P42224 1-750) (natural protein)”: the stoichiometry N (pSTAT1 dimer per importin α5 molecule) in assay [1] came out at 1.
In the case of “phosphorylated-Tyr701 STAT1 (1-712), N-terminal 6-histidine tag (from UniProt P42224-2 1-712) (natural protein)”, the values for the dissociation constant (Kd) in assay [2], in assay [3] and in assay [4] were 542 nM, 191 nM and 4300 nM, respectively. Also, the koff in assay [3] turned out to be 0.0189 s⁻¹; in assay [4], 0.289 s⁻¹; in assay [6], 0.0183 s⁻¹; in assay [7] it was 289 s⁻¹. Moreover, the kon in assay [3] came out at 98800 M⁻¹ s⁻¹; in assay [4], 66600 M⁻¹ s⁻¹. The substance also registered a stoichiometry N (pSTAT1 dimer per importin α5 molecule) in assay [5] of 1.
